T1: HLA-DP4 (human), P20036
T1 chain 1: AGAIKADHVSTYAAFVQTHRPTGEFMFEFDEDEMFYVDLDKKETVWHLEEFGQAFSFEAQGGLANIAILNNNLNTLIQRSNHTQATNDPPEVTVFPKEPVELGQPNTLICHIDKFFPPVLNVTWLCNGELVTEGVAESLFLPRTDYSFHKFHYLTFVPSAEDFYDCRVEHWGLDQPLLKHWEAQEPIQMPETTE
T1 chain 2: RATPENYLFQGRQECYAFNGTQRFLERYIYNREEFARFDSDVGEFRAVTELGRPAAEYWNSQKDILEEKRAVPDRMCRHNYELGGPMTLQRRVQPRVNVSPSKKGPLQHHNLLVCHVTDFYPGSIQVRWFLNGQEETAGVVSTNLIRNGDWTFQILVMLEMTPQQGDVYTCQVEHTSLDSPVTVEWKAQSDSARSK


Target: T1, HLA-DP4 (human), P20036
Assay: competition
Details: modification not given

| Binder | IC50 |
| --- | --- |
| PGCNKRYFKLSHLAMHSRKHT [341A] | 8.51 mM |
| PGCNKRYFKLSHLQMHSAKHT [345A] | 9.37 mM |
| PGCAKRYFKLSHLQMHSRKHT [331A] | 7.46 mM |

The next binders have a lower IC50 than those just listed; values first:

| IC50 | Binder |
| --- | --- |
| 0.3 mM | PGCNKAYFKLSHLQMHSRKHT [333A] |
| 4.74 mM | PGCNARYFKLSHLQMHSRKHT [332A] |
| 5.44 mM | PACNKRYFKLSHLQMHSRKHT [329A] |

— patent US20260042827A1, “ANTI-WT1 ANTIGEN-BINDING PROTEINS AND USES THEREOF” (UNIVERSITY HEALTH NETWORK, priority 2022, published 2026)
